Starred links: 1 amine or outer side, 2 acyl side, 3 side chain; linkers in the order of their positions; H or OH if unused. Non-standard residues stand in square brackets, D forms with d. Residues, ends and D or L forms follow the SMILES beside them. *: point of attachment. Dolaproine = CO[C@@H]([C@@H]1CCCN1)[C@@H](C)C(=O)O; Hexanoyl(6-maleimido) = O=C1C=CC(=O)N1CCCCCC(=O)*; Dil = CC[C@H](C)[C@H](NC)[C@@H](CC(=O)O)OC; PABC = O=C(OCc1ccc(N[*:1])cc1)[*:2]; X1 = C[C@@H](N*)[C@@H](O)c1ccccc1; Cit = NC(=O)NCCC[C@H](N)C(=O)O; NMeV = CN[C@H](C(=O)O)C(C)C
B1: W3195-1.53.1-p1-uIgG1L-MMAE (antibody, V domains shown)
VH: QVQLQESGPGLVKPSETLSLTCTVSGGSVISDNYYWTWVRQPPGKGLEFIGYIYYRGSTNYNPSLKNRVIISIDTSRNQFSLDLNSVTAADTAVYYCARDRRTGNSLPFDNWGQGTLVTVSS
VL: SYELTQPPSVSVSPGQTAQITCSGDKLGDKFASWYQQKSGQSPVVVIYQDNKRPSGFPERFSGSNSGNTATLTISGTQAMDEADYYCQAWDSSIVVFGGGTKLTVLG
modifications: MC-vc-PAB-MMAE conjugated to cysteine thiols after TCEP reduction (positions not stated); HIC-DAR 3.86 per antibody
notes: also called W3195-p1-MMAE; WBP3195-p1-ADC

Assays:
[1] = system: A549 cells; test: Cytotoxicity assay of ADC (Cell Titer Glo) on A549; assay type: cell-based, human; conditions: for IC50: A549 (P-cadherin low expressing), 5 days, read-out: IC50 (nM), ADC toxicity; for Max Inh %: A549, 5 days
[2] = system: MDA-MB-453 cells; test: Cytotoxicity assay of ADC (Cell Titer Glo) on MDA-MB-453; assay type: cell-based, human; conditions: for IC50: MDA-MB-453 (P-cadherin low expressing), 5 days, read-out: IC50 (nM), ADC toxicity; for Max Inh %: MDA-MB-453, 5 days
[3] = system: NCI-H1650 cells; test: Cytotoxicity assay of ADC (Cell Titer Glo) on NCI-H1650; assay type: cell-based, human; conditions: NCI-H1650, 5 days
[4] = system: HT-29 cells; test: Cytotoxicity assay of ADC (Cell Titer Glo) on HT-29; conditions: for Max Inh %: HT-29, 5 days; for IC50: read-out: IC50 (nM), ADC cytotoxicity, HT-29 (P-cadherin low expressing), 5 days
[5] = system: HCC-70 cells; test: Cytotoxicity assay of ADC (Cell Titer Glo) on HCC-70; conditions: HCC-70, 5 days; for IC50: read-out: IC50 (nM), ADC cytotoxicity
[6] = system: HCC-1954 cells; test: Cytotoxicity assay of ADC (Cell Titer Glo) on HCC-1954; conditions: HCC-1954, 5 days; for IC50: read-out: IC50 (nM), ADC cytotoxicity
[7] = molecular target: T1, human P-cadherin expressed on cells (human, UniProt P22223 108-829); test: FACS on HCT-116 cells
T1 sequence (P22223 108-829): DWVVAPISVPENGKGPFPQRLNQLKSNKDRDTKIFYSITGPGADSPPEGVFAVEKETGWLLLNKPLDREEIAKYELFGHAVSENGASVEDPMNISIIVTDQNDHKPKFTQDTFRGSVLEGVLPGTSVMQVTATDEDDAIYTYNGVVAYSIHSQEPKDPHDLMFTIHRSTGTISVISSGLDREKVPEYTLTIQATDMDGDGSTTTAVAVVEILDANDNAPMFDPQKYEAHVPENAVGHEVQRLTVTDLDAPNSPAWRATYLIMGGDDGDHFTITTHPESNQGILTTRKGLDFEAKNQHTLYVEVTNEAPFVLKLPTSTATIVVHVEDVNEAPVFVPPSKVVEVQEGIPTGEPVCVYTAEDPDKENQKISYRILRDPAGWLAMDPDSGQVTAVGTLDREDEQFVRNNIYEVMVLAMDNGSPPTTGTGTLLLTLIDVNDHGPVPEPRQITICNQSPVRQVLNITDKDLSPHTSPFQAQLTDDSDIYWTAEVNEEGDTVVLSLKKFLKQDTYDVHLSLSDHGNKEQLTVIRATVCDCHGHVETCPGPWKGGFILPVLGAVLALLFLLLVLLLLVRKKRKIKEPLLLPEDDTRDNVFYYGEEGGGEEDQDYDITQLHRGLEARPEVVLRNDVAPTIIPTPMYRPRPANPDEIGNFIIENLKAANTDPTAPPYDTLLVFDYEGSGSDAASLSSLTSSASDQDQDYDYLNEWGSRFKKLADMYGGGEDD
Description: Binding of the ADCs to P-cadherin expressed on HCT-116 cells was determined by flow cytometry analysis using the same procedure as described above. […] 1×10⁵ cells/well (100 μL) were added to each well of a 96-well U-plate (Corning, #3799) and centrifuged at 1500 rpm (Eppendorf, #5810R) for 5 minutes before removing the supernatant. Antibodies serially diluted in 1% BSA/1×PBS (Ca+/Mg+) were added at 100 μL/well to the pelleted cells and incubated at 4° C. for 1 hour. […] Cells were washed two times with 180 μL/well of 1% BSA/1×PBS (Ca+/Mg+) by centrifugation at 1500 rpm for 5 minutes at 4° C. Pelleted cells were resuspended in 100 μL/well Alexa647 conjugated Goat anti-human IgG Fc (Jackson, #109-605-098) 1:500 diluted in 1% BSA/1×PBS (Ca+/Mg+) for 30 minutes at 4° C. in the dark. Cells were then washed two times as described above. After the final wash, cells were resuspended in 100 μL 1% BSA/1×PBS (Ca+/Mg+) and fluorescence values were measured with a FACS Canto II cytometer (BD Biosciences). The amount of cell surface bound anti-P-Cadherin antibody was assessed by measuring the mean fluorescence (MFI).

[8] = molecular target: T1, human P-cadherin expressed on cells; test: FACS on NCI-H1650 cells
[9] = molecular target: T2, P-Cadherin ECD domain 1 (aa 108-236) (human, UniProt P22223 108-236); test: direct ELISA, coated antigen
T2 construct: range 108-236; also called huCDH3 ECD Domain1
T2 sequence (P22223 108-236 limits assumed): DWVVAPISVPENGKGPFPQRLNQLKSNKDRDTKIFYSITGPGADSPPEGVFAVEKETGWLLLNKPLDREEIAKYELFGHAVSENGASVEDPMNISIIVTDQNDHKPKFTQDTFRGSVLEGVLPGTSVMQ
Description: (§1) The binding domains of the antibody drug conjugates to human P-Cadherin extra cellular domain (ECD) were determined by a direct protein binding ELISA. 96-well high protein binding ELISA plates (Nunc) were coated overnight at 4° ° C. with antigens in coating buffer. All wells were washed three time with PBS/0.5%. Tween-20 (v/v) and all the following wash steps in the assay were performed the same. The wells were then blocked for one hour with 2% BSA (Bovogen)/1×PBS (Ca+/Mg+) (Gibco) and washed three times. For the primary antibody binding, the testing antibodies including the BMKs and our antibodies serially diluted in 2% BSA/1×PBS (Ca+/Mg+) were added to the relevant wells and incubated at ambient temperature for two hours. Plates were washed three times prior to the addition of 100 μL of secondary antibody Goat anti-Human-IgG-F(ab′)2-HRP (Jackson) diluted in 2% BSA/1×PBS (Ca+/Mg+). Plates were incubated at room temperature for one hour, followed by six washes as describe above.
(§2) For the binding detection, 100 μL Tetramethylbenzidine (TMB) Substrate solution (Invitrogen) was added to all wells before stopping the reaction with 100 μL 2M HCl. The extent of the testing Abs binding to P-Cadherin ECD (i.e. huCDH3 ECD, Uniprot ID: P22223 aa108-654), P-Cadherin ECD domain 1 (aa 108-236), P-Cadherin ECD domain 1+2 (aa 108-348), P-Cadherin ECD domain 1+2+3 (aa 108-461), P-Cadherin ECD domain 1+2+3+4 (aa 108-550) proteins were determined by measuring the OD450-OD540 absorbance using the SpectraMax® M5e microplate reader. EC50 values were obtained by the four-parameter non-linear regression analysis using GraphPad Prism software.

[10] = molecular target: T3, P-Cadherin ECD domain 1+2 (aa 108-348) (human, UniProt P22223 108-348); test: direct ELISA, coated antigen
T3 construct: range 108-348; also called huCDH3 ECD Domain1 + 2
T3 sequence (P22223 108-348 limits assumed): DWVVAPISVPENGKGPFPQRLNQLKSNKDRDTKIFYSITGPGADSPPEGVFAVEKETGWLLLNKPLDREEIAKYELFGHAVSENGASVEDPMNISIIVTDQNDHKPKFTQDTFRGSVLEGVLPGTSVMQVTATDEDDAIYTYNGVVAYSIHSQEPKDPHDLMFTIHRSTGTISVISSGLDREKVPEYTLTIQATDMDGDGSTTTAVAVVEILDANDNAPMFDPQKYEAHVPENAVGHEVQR
Description: as §1, §2

[11] = molecular target: T4, P-Cadherin ECD domain 1+2+3 (aa 108-461) (human, UniProt P22223 108-461); test: direct ELISA, coated antigen
T4 construct: range 108-461; also called huCDH3 ECD Domain1 + 2 + 3
T4 sequence (P22223 108-461 limits assumed): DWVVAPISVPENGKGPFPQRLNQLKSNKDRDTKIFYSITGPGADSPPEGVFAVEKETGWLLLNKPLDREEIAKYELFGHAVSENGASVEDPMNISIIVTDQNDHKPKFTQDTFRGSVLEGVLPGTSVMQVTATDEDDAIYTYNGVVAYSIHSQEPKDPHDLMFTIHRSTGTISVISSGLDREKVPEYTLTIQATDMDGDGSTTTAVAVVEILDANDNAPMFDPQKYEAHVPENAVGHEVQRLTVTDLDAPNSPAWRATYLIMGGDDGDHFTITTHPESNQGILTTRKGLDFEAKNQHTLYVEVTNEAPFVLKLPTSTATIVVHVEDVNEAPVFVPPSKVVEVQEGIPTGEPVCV
Description: as §1, §2

[12] = molecular target: T1, human P-cadherin expressed on cells; test: cell-based or functional assay
[13] = molecular target: T1, human P-cadherin expressed on cells; test: cell-based or functional assay; remark: listed apart in the source
[14] = molecular target: T1, human P-cadherin expressed on cells; test: cell-based or functional assay; remark: listed apart in the source
[15] = molecular target: T1, human P-cadherin expressed on cells; test: cell-based or functional assay; remark: listed apart in the source
[16] = molecular target: T1, human P-cadherin expressed on cells; test: cell-based or functional assay; remark: listed apart in the source
[17] = molecular target: T5, P-Cadherin ECD domain 1+2+3+4 (aa 108-550) (human, UniProt P22223 108-550); test: direct ELISA, coated antigen
T5 construct: range 108-550; also called huCDH3 ECD Domain1 + 2 + 3 + 4
T5 sequence (P22223 108-550 limits assumed): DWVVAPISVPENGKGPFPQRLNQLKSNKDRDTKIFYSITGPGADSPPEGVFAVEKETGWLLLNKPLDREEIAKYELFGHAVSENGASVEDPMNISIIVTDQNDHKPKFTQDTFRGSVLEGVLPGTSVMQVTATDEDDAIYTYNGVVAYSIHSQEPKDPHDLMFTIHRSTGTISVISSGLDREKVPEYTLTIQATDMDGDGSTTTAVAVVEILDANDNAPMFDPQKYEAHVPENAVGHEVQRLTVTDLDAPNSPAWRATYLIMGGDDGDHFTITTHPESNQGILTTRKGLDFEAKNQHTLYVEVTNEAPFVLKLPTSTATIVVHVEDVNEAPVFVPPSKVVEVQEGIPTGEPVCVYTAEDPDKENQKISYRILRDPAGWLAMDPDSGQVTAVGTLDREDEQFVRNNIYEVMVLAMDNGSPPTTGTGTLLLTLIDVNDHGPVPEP
Description: as §1, §2

[18] = molecular target: T6, P-Cadherin ECD (huCDH3 ECD, Uniprot ID: P22223 aa108-654) (human, UniProt P22223 108-654); test: direct ELISA, coated antigen
T6 construct: range 108-654; also called extracellular domain of human P-cadherin
T6 sequence (P22223 other isoform, or with tags, fused parts or gaps limits assumed): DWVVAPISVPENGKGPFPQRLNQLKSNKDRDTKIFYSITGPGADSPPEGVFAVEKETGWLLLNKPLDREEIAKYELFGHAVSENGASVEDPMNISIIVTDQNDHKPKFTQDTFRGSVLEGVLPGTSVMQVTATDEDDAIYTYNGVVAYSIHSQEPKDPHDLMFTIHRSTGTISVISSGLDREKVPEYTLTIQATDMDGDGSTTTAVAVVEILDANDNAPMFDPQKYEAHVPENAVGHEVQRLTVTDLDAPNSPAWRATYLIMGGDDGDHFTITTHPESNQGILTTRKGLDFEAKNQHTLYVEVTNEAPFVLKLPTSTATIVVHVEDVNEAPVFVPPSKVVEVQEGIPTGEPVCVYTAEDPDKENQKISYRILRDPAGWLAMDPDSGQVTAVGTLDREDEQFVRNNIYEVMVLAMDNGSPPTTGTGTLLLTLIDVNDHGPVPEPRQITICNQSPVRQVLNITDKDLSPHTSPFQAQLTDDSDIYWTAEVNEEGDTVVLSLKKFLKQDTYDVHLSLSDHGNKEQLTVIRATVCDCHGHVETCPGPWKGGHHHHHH
Description: as §1, §2

[19] = molecular target: T1, human P-cadherin expressed on cells; test: FACS on HCT-116 cells after 1 day in human serum at 37 C
Description: (§3) The antibody stability in human serum was tested by FACS. Briefly, human serum was freshly isolated by centrifuging the fresh blood twice at 4000 rpm for 10 minutes. […] As a control, antibodies serum mix was frozen immediately without 37° C. incubation. For the FACS analysis, the samples from different time points were free-thawed simultaneously at 4° C. […] The cells were washed twice with 1% BSA/1×PBS (Ca+/Mg+). Alexa647 conjugated Goat anti-human IgG Fc (Jackson, #109-605-098) 1:500 diluted in 1% BSA/1×PBS (Ca+/Mg+) were added to the cells and incubated at 4° C. for 30 minutes. Cells were washed twice in the same buffer and the mean fluorescence (MFI) of stained cells was measured using a FACS Canto II cytometer (BD Biosciences) and analyzed by FlowJo. Wells containing no antibody or secondary antibody only were used to establish background fluorescence. Four-parameter non-linear regression analysis was used to obtain EC50 values for cell binding using GraphPad Prism6 software.

[20] = molecular target: T1, human P-cadherin expressed on cells; test: FACS on HCT-116 cells after 4 days in human serum at 37 C
Description: as §3

[21] = molecular target: T1, human P-cadherin expressed on cells; test: FACS on HCT-116 cells after 7 days in human serum at 37 C
Description: as §3

[22] = molecular target: T1, human P-cadherin expressed on cells; test: FACS affinity test on NCI-H1650 cells, quantitative beads
[23] = molecular target: T1, human P-cadherin expressed on cells; test: FACS on HCT-116 cells after 14 days in human serum at 37 C
Description: as §3

[24] = molecular target: T2, P-Cadherin ECD domain 1 (aa 108-236); test: direct ELISA on coated huCDH3 ECD Domain1, goat anti-human IgG F(ab')2-HRP detection
Description: as §1, with “Plates were washed three times prior to the addition of 100 μL of secondary antibody Goat anti-Human-IgG-F(ab′)2-HRP (Jackson) diluted in 2% BSA/1×PBS (Ca+/Mg+). Plates were incubated at room temperature for one hour, followed by six washes as describe above.” left out
(§4) For the binding detection, 100 μL Tetramethylbenzidine (TMB) Substrate solution (Invitrogen) was added to all wells before stopping the reaction with 100 μL 2M HCl. The extent of the testing Abs binding to P-Cadherin ECD (i.e. huCDH3 ECD, Uniprot ID: P22223 aa108-654), P-Cadherin ECD domain 1 (aa 108-236), P-Cadherin ECD domain 1+2 (aa 108-348), P-Cadherin ECD domain 1+2+3 (aa 108-461), P-Cadherin ECD domain 1+2+3+4 (aa 108-550) proteins were determined by measuring the OD450-OD540 absorbance using the SpectraMax® M5e microplate reader. […]

[25] = molecular target: T3, P-Cadherin ECD domain 1+2 (aa 108-348); test: direct ELISA on coated huCDH3 ECD Domain1+2, goat anti-human IgG F(ab')2-HRP detection
Description: as §1, with “Plates were washed three times prior to the addition of 100 μL of secondary antibody Goat anti-Human-IgG-F(ab′)2-HRP (Jackson) diluted in 2% BSA/1×PBS (Ca+/Mg+). Plates were incubated at room temperature for one hour, followed by six washes as describe above.” left out
as §4

Molecule | IC50 [1] [nM] | Max Inh % [1] [%] | IC50 [2] [nM] | Max Inh % [2] [%] | Max Inh % [3] [%] | Max Inh % [4] [%] | IC50 [4] [nM] | Max Inh % [5] [%] | IC50 [5] [nM] | Max Inh % [6] [%] | IC50 [6] [nM] | Max OD [9] [OD450-OD540] | Max OD [10] [OD450-OD540] | Max OD [11] [OD450-OD540] | also measured
CC[C@H](C)[C@@H]([C@@H](CC(=O)N1CCC[C@H]1[C@H](OC)[C@@H](C)C(=O)N[C@H](C)[C@@H](O)c1ccccc1)OC)N(C)C(=O)[C@@H](NC(=O)[C@@H](NC)C(C)C)C(C)C [Free drug (MMAE), mono-methyl auristatin E] (H-[NMeV]V[Dil][Dolaproine]-X1) | 1.37 | 89.2 | 1.28 | 96.7 | 81 | 95.5 | 0.52 | 87.2 | 0.23 | 97.7 | 0.05 |  |  |  | 
CC[C@H](C)[C@@H]([C@@H](CC(=O)N1CCC[C@H]1[C@H](OC)[C@@H](C)C(=O)N[C@H](C)[C@@H](O)c1ccccc1)OC)N(C)C(=O)[C@@H](NC(=O)[C@H](C(C)C)N(C)C(=O)OCc1ccc(NC(=O)[C@H](CCCNC(N)=O)NC(=O)[C@@H](NC(=O)CCCCCN2C(=O)C=CC2=O)C(C)C)cc1)C(C)C [Free payload control (MC-VC-PAB-MMAE), MC-VC-PAB-MMAE] ({Hexanoyl(6-maleimido)}-V[Cit][PABC][NMeV]V[Dil][Dolaproine]-X1) | > 10 | −5.4 | > 10 | −0.6 | 1 | −0.1 | > 10 | 1.3 | > 10 | 20.1 | > 10 |  |  |  | IC50 [3]: > 10 nM
Isotype control (non-related hIgG1 antibody) |  |  |  |  |  |  |  |  |  |  |  | 0.014 | 0.014 | 0.015 | Max MFI [7]: 402 MFI; Max MFI [8]: 331 MFI
B1 |  |  |  |  |  |  |  |  |  |  |  | 0.19 | 0.16 | 0.95 | EC50 [7]: 0.17 nM; ADC Cytotoxicity on HCC-1954, IC50 [12]: 0.011 nM; ADC Cytotoxicity on HCC-70, IC50 [13]: 0.065 nM; ADC Cytotoxicity on NCI-H1650, IC50 [14]: 0.027 nM; Internalization of HCC-1954 cells in HCS assay, EC50 [15]: 0.023 nM; Internalization of NCI-H1650 cells in HCS assay, EC50 [16]: 0.22 nM; EC50 [8]: 0.075 nM; EC50 [17]: 0.17 nM; Max OD [17]: 0.75 OD450-OD540; EC50 [18]: 0.23 nM; Max OD [18]: 0.65 OD450-OD540; EC50 [11]: 0.2 nM; EC50 [19]: 0.15 nM; EC50 [20]: 0.18 nM; EC50 [21]: 0.17 nM; Kd [22]: 0.168 nM; EC50 [23]: 0.18 nM; binding result [24]: no binding (tested: about 20 nM); binding result [25]: no binding (tested: about 20 nM)

— patent publication US20240239885A1, “ANTIBODY CONJUGATE COMPRISING ANTI-P-CADHERIN ANTIBODY AND USES THEREOF” (WUXI BIOLOGICS IRELAND LIMITED, priority 2021, published 2024)
